According to patent publication US20050137128 (published 2005):
Square brackets hold non-standard residues; d marks the D form. * marks the point of attachment. NHOH = ON*

Biological target: Aβ1-40 fibril (Homo sapiens)
Assay: other, fibril binding 3-point assay

Kd: ~4 nM
Binder: Me-[dL][dV][dF][dF][dL]-{NHOH} [PPI-1800]
